Test results reported in PMC8945367, “Transcription Regulation of Tceal7 by the Triple Complex of Mef2c, Creb1 and Myod” (Biology, 2022).

Biological target: 3×HA-Creb1 (UniProt Q01147-2 1-327)
Assay: cell-based or functional assay

Sequence of 3×HA-Creb1 (Q01147 whole entry): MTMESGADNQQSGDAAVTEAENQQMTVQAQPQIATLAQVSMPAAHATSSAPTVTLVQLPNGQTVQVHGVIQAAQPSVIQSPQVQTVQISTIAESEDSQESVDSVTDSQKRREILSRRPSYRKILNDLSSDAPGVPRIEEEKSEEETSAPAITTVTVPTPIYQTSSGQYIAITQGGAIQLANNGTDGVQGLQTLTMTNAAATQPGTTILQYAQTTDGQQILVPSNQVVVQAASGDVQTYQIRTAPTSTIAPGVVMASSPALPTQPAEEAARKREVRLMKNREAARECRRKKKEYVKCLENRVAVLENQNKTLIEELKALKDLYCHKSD

B1: 6×Myc-Mef2c (natural protein)
chain: not shown
transactivation of Reporter II (4×(Mef2#3–CRE#3–E#4) luciferase) by Mef2c and Creb1 together in HEK293T cells; 2.8-fold by Mef2c and 3.7-fold by Creb1 alone: 8.3 fold
